Test results from the nanobody polyreactivity screen of Harvey et al. (2022).

Assay: yeast display, Sf9 membrane polyspecificity reagent, FACS + sequencing; frameworks hold sequencing errors
In short: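 Nanobodies came from a synthetic yeast display library in Saccharomyces cerevisiae BJ5465, induced with galactose for 36–48 hours and stained for 1 hour at 4 °C with 10% biotinylated, detergent-solubilized Sf9 membrane reagent. Cells were enriched on streptavidin microbeads and then FACS-sorted, with low and high (top ~1%) gates set on anti-HA fluorescence for expression and streptavidin fluorescence for reagent binding. Each polyreactivity label reflects the gate a clone came from. Genes were amplified by colony PCR, sequenced by MiSeq 2 × 250 and filtered by CDR length.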

Row | Sequence | polyreactivity (PSR sort gate)
1 | QVQLVESGGGLVQAGGSLRLSCAASGRIFGRNTMGWYRQAPGKERELVAAISYSAGSTYYADSVKGRFTISRDNAKNTVYLQMNSLKPEDTAVYYCAAGYIRTTYRTNRYGYWGQGTQVTVSS | high polyreactivity
2 | QVQLVESGGGLVHAGGSLRLSCAASGSTSVYYAMGWYRQTPGKERELVAAITWDDGSTSYADSVKGRFTISRDNAKNTVYLQMNSLNPEDTAVYYCAKDYEYLGAFNYWGQGTQVTVSS | low polyreactivity
3 | QVQLVESGGGLVQAGGSLRLSCAASGSIFYRYAMGWYRQAPGKERELVAAIRSRTGRTYYADSVKGRFTITRDNAKNTVYLQMNSLKQEDTAVYYCAADKYFSARFDYWGQGTQVTVSS | high polyreactivity
4 | QVQLVESGGGLVQAGGSLRLSCAASGSSFSRYDMGWYRQAPGKERELVATITRPGRTYYADSVKGRFTISRDNATKTVYLQMNSLKPEDTAVYYCAKDAGKTYYVDGSLEYDSWGQGTQVTVSS | low polyreactivity
5 | QFQLVESGGGLVQAGGSLRLSCAASGYTFAVNTMGWYRQAPGKESELVAAITLGGGSTYYADSVKGRFTISRDNAKNTVYLQMNSLKPEDTAVYYCATDPVDYRGWWRGYKYDYWGQGTQVTVSS | low polyreactivity
6 | QVQLVESGGGLVQAGGSLRLSCSASGFIFGKYAMGRYRQAPGKERELVAAISKSGGSTYYADSVKGRFTISRDNAKNTVYLQMNSLKPEDTAVYYCDARSLGHYGSWGQGTQVTVSS | high polyreactivity
7 | QVQLVESGGGLVQAGGSLRLSCAASGSIFIYYAMGWYRHAPGKERELDAAISNGGSTNYADSVKGRFTISRDNGKNTVYLQLNRLKPEDTAVYYCNARLERTPSLYLYGSWGQGTQVTVSS | low polyreactivity
8 | QVQLVESGGGLVQAGGSLRLSCAASGSTFPRYAMGWYRPAPGKERELVARISNSGASTYYADSVKGRFTISRDNAKNTVYLQMNSLKPEDTAVYYCNARRYSRPSGFKHYHYAESDYWGQGTQVTVSS | high polyreactivity
9 | QVQLVESGGGLVQAGGSLRLSCAASGRTFRGYAMGWYRQAPGKERELVAAITSGGSTNYADSVKGRFTISRDHAKNSVYLQMNSLKPEDTAVDYCNRDTSKYGLWRYIYDYWGQGTQVTVSS | low polyreactivity
10 | QVQLVESGGGLVQAGGSLRLSCAASGRSFGVYAMGWYRQAPGKERELVAVISSGGSTTYADSVKGRFTISRDNAKNTVYLQMNSLKPEDTAVYYCAAVSYRRHFGPYNYWGQGTQVTVSS | low polyreactivity
11 | QVQLVESGGGLVQAGGSLRLSCAASGRIFIVNAMGWYRQAPGKERELVAAISYRGGSTYYADSVKGRFTISRDNAKNTVYLQMNSLKPEDTAVYYCNTDGYIYRYRFDYWGQGTQVTVSS | low polyreactivity
12 | QVQLVESGGGLVQAGGSLRLSCAASGRTFQYYAMGWYRQAPGKERELVAAISSGGSTYYADSVKGRFTISRDNAKNTVYLQMNSLKPEDTAVYYCTARWGYRRGYWGQGTQVTVSS | high polyreactivity
13 | QVQLVESGGGLVQAGGSLRLSCAASGFIFQAYALGWYRQAPGKERELVASISYSGSRTYYADSVKGRFTISRDNAKNTVYLQMNSLKPEDTAGYYCAARYGRYYKYNYWGQGTQVTVSS | high polyreactivity
14 | QVQLVESGGGLVQAGGSLRLSCAASGITFFYYAMGWYRQAPGKEMELVAAIRYYGTSTYADSVKGRFTISRDNAKNTVYLQMNSLKPEDTAVYYCAAVFWFVGSLYDYWGQGTQVTVSS | low polyreactivity
15 | QVQLVESGGGLVHAGGSLRLSSAASGLIFGWYAMGWYRPAPGKEREFVASIRDGGGSTYYADSVNGRFTISRDNANNTVFLEMHSLKPEDSAVYYFAADRYPWHLQYVEYDSDFWGQGTQVTVSS | low polyreactivity
16 | QVQLVESGGGLVQAGGSLRLSCAASGRIFYPYAMGWYRQAPGKERELVAAITYSGGSTYYADSVKGRFTISRDNAKNTVYLQMNSLKPEDTAVYYCNAVQRGSFYLGKFGYWGQGTQVTVSS | high polyreactivity
17 | QVQLVESGGGLVQAGGSLRLSCAASGSTINYYAMGWYRQAPGKERELVAAISRRSGSTYYADSVKGRFTISRDNAKNTVYLQMNSLKPEDTAVYYCAAGYGGTFNWGQGTQVTVSS | high polyreactivity
18 | QVQLVESGGGLVQAGGSLRLSCAASGRIFTGYAMGWSRQAPGKERELVASITWRGGSTSYADSVKGRFTISRDNAKNTVYLQMNRLKPEDTAVYYCAAQKWYYPYYWGQGTQVTVSS | high polyreactivity
19 | QDQLVESGGGLVQAGGSLRLSCAASGRIFKSYAMGWYRQAHGKERELVAAISSSGGSTYYADSVKGRFTISRDNAKNTVYLQMNSLKPEDTAVYYCAAYGHYSWSYDYWGQGTQVTVSS | high polyreactivity
20 | QVQLVESGGGLVQAGGSLRLSCAASGSISPQNVMGWYRQAPGKERELVAAITGGGSTNYADSVKGRFTISRDNAKQTVYLQLNSLKPEDTAVYYCNADYFQDRLDYWGQGTQVTVSS | low polyreactivity
21 | QVQLVETGGVLVQAGGSLRLSCAASGRIFPPNAMGWSRQAPGKEREFVASINRSGGRTYYADSVKGRFTISRDNAKNTVYLQMNSLKPEDTAVYYCAATGGYSCPLGVSWKYEYWGQGNQVTVSS | low polyreactivity
